From patent US20050282743A1, “Molecular interactions in cells” (Arbor Vita Corporation, priority 2001, published 2005) come the findings set out here.

What all share (assay): G' assay
Test [1] addresses T1, GST-MUPP1 PDZ domain 11 (Homo sapiens (Human)), O75970.
T1 chain: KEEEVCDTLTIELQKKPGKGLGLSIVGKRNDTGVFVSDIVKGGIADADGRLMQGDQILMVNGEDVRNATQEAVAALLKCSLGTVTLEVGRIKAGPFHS

The target in test [2] is T2, GST-KIAA0382 PDZ domain 1 (Canis lupus familiaris (Dog) (Canis familiaris)), A0A8I3.
T2 chain: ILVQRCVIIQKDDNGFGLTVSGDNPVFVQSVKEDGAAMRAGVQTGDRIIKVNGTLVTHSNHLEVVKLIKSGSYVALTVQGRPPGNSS

Test [3] deals with T3, GST-MINT1 PDZ domain 2 (Mus musculus (Mouse)), B2RUJ5.
T3 chain: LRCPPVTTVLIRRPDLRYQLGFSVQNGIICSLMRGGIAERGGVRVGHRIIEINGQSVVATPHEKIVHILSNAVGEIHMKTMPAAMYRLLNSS

In test [4] the target is T4, GST-KIAA1719 PDZ domain 6 (Homo sapiens (Human)), Q9C0E4.
T4 chain: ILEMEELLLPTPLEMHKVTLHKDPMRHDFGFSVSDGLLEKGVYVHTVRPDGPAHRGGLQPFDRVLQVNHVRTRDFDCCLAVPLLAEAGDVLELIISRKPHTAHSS

Test [5] concerns the target T5, GST-MINT1 PDZ domains 1, 2, Q02410.
T5 chain: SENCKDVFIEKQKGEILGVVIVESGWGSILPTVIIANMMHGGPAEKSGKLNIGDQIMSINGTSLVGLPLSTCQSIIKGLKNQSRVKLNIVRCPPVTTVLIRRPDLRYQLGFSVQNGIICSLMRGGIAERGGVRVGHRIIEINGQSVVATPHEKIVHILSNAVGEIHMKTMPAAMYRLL

Test [6] concerns the target GST-KIAA1634 PDZ domain 1 (Homo sapiens (Human)), Q5TCQ9.
The target of test [7] is T6, GST-AF6 PDZ domain 1 (Homo sapiens (Human)), P55196.
T6 chain: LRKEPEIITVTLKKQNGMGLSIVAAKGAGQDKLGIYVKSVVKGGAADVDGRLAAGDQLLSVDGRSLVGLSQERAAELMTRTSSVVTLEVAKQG

For test [8], the target named is T7, GST-EZRIN Binding Protein 50 PDZ domain 1 (Homo sapiens (Human)), O14745.
T7 chain: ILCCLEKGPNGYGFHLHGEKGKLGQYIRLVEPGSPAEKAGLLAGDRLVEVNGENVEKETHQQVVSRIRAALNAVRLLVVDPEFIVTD

The target in test [9] is GST-KIAA807 [GST: P08515].
The target of test [10] is T8, GST-LIM-RIL PDZ domain 1 (Homo sapiens (Human)), P50479.
T8 chain: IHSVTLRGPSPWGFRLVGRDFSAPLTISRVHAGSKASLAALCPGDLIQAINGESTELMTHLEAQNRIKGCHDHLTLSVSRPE

Test [11] has as its target T9, GST-Shank 1 PDZ domain 1 (Homo sapiens (Human)), Q9UPX8.
T9 chain: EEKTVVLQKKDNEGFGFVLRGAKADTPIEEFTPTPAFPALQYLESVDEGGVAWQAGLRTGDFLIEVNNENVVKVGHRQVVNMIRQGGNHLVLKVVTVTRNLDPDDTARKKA

In test [12] the target is GST-KIAA1634 PDZ domain 5 (Homo sapiens (Human)), Q5TCQ9.
In test [13] the target is GST-BAI-1 Associated Protein PDZ domain 6 (Homo sapiens (Human)), Q96QZ7.
The target in test [14] is T10, GST-Shank 3 PDZ domain 1 (human (hypothetical, computer cloned)), Q9BYB0.
T10 chain: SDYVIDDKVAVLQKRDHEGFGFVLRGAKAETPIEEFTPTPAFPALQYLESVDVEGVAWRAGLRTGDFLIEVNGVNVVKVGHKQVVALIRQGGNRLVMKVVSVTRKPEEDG

For test [15], the target named is T11, GST-EZRIN Binding Protein 50 PDZ domain 2 (Homo sapiens (Human)), O14745.
T11 chain: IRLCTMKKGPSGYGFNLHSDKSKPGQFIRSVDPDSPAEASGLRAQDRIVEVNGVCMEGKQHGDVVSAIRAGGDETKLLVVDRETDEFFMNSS

The target in test [16] is T12, GST-APXL-1 PDZ domain 1 (Homo sapiens (Human)), Q13796.
T12 chain: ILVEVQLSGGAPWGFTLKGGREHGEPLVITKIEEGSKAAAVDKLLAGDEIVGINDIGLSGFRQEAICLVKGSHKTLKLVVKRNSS

The target in test [17] is T13, GST-HEMBA 1003117 PDZ domain 1 (Homo sapiens (Human)), Q96JH8.
T13 chain: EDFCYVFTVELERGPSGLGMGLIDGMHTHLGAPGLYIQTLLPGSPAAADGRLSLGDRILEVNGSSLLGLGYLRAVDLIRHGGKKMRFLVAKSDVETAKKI

Test [18] has as its target T14, GST-INADL PDZ domain 3 (Homo sapiens (Human)), Q8NI35.
T14 chain: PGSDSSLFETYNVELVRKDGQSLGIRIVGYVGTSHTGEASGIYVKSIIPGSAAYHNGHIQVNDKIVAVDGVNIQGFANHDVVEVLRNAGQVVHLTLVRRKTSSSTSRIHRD

The target in test [19] is GST-Atrophin-1 Interacting Protein PDZ domain 5 (Rattus norvegicus (Rat)), O88382.
For test [20], the target named is T15, GST-LIM Mystique PDZ domain 1 (Homo sapiens (Human)), Q96JY6.
T15 chain: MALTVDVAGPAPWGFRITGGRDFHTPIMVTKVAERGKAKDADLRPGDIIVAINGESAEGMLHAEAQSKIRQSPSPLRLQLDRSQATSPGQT

Test [21] has as its target T16, GST-KIAA0807(S) PDZ domain 1 (Homo sapiens (Human)), Q6P0Q8.
T16 chain: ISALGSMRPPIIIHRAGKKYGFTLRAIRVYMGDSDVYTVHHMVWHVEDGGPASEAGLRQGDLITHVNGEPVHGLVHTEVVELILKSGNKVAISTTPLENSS

Test [22] has as its target GST-KIAA0147 PDZ domain 1 (Homo sapiens (Human)), Q14160.
For test [23], the target named is T17, GST-FLJ 10324 PDZ domain 1 [GST: P08515].
T17 chain: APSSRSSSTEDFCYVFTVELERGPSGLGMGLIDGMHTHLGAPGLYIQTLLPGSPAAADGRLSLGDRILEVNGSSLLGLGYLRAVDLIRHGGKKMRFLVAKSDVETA

The target in test [24] is T18, GST-Syntrophin 1 alpha PDZ domain 1 (Homo sapiens (Human)), Q13424.
T18 chain: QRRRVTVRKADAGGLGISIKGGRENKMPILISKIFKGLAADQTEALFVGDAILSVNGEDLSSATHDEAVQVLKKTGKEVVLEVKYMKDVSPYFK

Test [25] addresses T19, GST-PDZK1 PDZ domains 2, 3, 4, Q5T2W1.
T19 chain: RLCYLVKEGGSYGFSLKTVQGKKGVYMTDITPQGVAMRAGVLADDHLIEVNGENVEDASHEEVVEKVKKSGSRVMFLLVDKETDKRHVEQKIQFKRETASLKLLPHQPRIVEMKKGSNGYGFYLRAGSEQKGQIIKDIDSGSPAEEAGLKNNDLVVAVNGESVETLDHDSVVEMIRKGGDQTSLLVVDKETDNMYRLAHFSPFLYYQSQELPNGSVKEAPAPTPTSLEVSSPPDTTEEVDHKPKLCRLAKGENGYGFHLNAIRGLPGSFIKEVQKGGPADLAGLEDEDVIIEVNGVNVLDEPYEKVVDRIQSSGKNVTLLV

The target of test [26] is T20, GST-PTPL1 PDZ domain 4 (Homo sapiens (Human)), Q12923.
T20 chain: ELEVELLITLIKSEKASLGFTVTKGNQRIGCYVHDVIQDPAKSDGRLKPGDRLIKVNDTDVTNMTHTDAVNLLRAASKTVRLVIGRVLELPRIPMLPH

Test [27] addresses T21, GST-MUPP1 PDZ domain 3 (Homo sapiens (Human)), O75970.
T21 chain: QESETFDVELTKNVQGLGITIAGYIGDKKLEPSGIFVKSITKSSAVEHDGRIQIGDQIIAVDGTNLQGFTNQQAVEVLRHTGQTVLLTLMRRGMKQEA

For test [28], the target named is T22, GST-MUPP1 PDZ domain 9 (Homo sapiens (Human)), O75970.
T22 chain: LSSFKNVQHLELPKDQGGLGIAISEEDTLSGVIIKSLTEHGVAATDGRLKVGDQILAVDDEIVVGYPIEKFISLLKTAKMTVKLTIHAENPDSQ

For test [29], the target named is T23, GST-MUPP1 PDZ domain 7 (Homo sapiens (Human)), O75970.
T23 chain: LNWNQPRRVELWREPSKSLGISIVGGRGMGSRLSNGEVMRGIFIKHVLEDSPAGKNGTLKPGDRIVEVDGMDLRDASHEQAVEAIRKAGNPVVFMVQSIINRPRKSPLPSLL

Test [30] addresses GST-PAR3 PDZ domain 3 (Homo sapiens (Human)), Q8TEW0.
Note: key of the grades not given here.

Chain of GST-KIAA807 [GST: P08515] (P08515 whole entry, the tested form may be a part): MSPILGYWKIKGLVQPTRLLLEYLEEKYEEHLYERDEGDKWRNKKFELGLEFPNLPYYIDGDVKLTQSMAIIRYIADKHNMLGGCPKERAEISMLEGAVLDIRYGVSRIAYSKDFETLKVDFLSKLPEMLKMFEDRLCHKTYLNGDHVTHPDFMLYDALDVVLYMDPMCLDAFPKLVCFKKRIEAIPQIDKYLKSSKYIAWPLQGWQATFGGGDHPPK
Chain of GST-KIAA0147 PDZ domain 1 (Homo sapiens (Human)), Q14160 (Q14160 other isoform, or with tags, fused parts or gaps): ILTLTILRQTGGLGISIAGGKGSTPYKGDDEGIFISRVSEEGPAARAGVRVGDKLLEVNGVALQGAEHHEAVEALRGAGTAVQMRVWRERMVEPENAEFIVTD
Chain of GST-PAR3 PDZ domain 3 (Homo sapiens (Human)), Q8TEW0 (Q8TEW0 579-681): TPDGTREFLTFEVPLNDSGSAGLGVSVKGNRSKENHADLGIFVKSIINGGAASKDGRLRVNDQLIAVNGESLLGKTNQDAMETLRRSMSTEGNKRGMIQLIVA
Chain of GST-BAI-1 Associated Protein PDZ domain 6 (Homo sapiens (Human)), Q96QZ7 (Q96QZ7 1143-1233): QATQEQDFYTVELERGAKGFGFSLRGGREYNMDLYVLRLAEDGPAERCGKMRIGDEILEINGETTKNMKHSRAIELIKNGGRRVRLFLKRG
Chain of GST-Atrophin-1 Interacting Protein PDZ domain 5 (Rattus norvegicus (Rat)), O88382 (O88382 1128-1225): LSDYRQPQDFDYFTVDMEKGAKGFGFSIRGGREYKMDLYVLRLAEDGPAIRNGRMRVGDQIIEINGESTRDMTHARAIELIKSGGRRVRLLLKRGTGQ
Chain of GST-KIAA1634 PDZ domain 1 (Homo sapiens (Human)), Q5TCQ9 (Q5TCQ9 401-502): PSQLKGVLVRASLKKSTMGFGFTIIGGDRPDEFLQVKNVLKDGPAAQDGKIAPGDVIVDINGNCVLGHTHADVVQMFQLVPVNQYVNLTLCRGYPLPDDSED
Chain of GST-KIAA1634 PDZ domain 5 (Homo sapiens (Human)), Q5TCQ9 (Q5TCQ9 other isoform, or with tags, fused parts or gaps): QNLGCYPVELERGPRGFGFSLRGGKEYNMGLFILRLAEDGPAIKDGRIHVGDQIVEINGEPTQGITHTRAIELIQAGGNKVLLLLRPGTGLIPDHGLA

B1: ephrin A2 (peptide)
peptide: RIAYSLLGLKDQVNTVGIPI
modifications: not checked
In the case of B1, the Classification in test [1], in [2], in test [3] and in [4] was 1 A450 class throughout.

B2: Nectin 2 (peptide)
peptide: SSPDSSYQGKGFVMSRAMYV
modifications: not checked
For B2, the results for the Classification in test [5], in test [6] and in test [7] were 2 A450 class, 1 A450 class and 2 A450 class, respectively.

B3: DOCK2 (peptide)
peptide: LASKSAEEGKQIPDSLSTDL
modifications: not checked
With B3, the Classification worked out at 1 A450 class in test [8]; 5 A450 class in [9]; 1 A450 class in test [10]; 1 A450 class in [11]; 1 A450 class in [2]; 1 A450 class in test [12]. The Classification came to 1 A450 class in test [13]; 1 A450 class in [14]; 2 A450 class in test [15]; 2 A450 class in test [16]; 1 A450 class in test [17]; 1 A450 class in [18]. For the same molecule, the Classification in test [19] was 1 A450 class; in test [20], 1 A450 class; in [21], 4 A450 class; in [22] it was 1 A450 class; in test [23] it was 1 A450 class.

B4: GABA transporter 3 (peptide)
peptide: DAKLKSDGTIAAITEKETHF
modifications: not checked
Take B4: the Classification in [24], in test [9], in [25], in [11], in [16] and in [21] was 1 A450 class throughout.

B5: ephrin B1 (peptide)
peptide: PVYIVQEMPPQSPANIYYKV
modifications: not checked
For the molecule B5, the Classification in [9] was found to be 1 A450 class; in [26], 2 A450 class; in [27], 1 A450 class; in [28] it was 1 A450 class; in test [21], 1 A450 class; in [29] it was 1 A450 class.

B6: Glycophorin C (peptide)
peptide: QGDPALQDAGDSSRKEYFI
modifications: not checked
For B6, the values for the Classification in test [30] and in test [4] were 2 A450 class and 1 A450 class, respectively.

B7: bone morphogenetic protein receptor (peptide)
peptide: TALRIKKTLAKMVESQDVKI
modifications: not checked
B7: the Classification in test [27], in [28], in test [21] and in [29] was 1 A450 class throughout.

B8: JAM (junctional adhesion molecule) (peptide)
peptide: YSQPSARSEGEFKQTSSFLV
modifications: not checked
With B8, the Classification in [26], in test [18] and in test [7] was 1 A450 class each time.
